We go through 4 molecules from PMC10433963 (2023).

To fix the notation:
B1: XRE (recombinant) (natural protein)
chain: MAQDENLAAVVSNAAQDIGSFIRAQREAAQVSVRQLAEKAGVSNPYLSQIERGLRKPSADVLNQIAKALRVSAEVLYVRAGILEPSEPSEVRDAIVNDVSITERQKQVLLDIYTSFRQQNEAAGEPEGAAVIPSPDEEPATD
B2: DnaJ1 (recombinant) (natural protein)
chain: MAQREWVEKDFYKELGVSSDASADEIKKAYRKLAAELHPDRNSDPGAAERFKAVSEANSVLSDPAKRKEYDETRRLFAGGFGRRFNQGGGGFGGGFGSDGVEFNLGDLFDAAGQTGGANIGDLFGGLFGRGPQQRPSRPRRGNDLETETELSFLEATKGVAMPLRLTSPAPCTNCHGSGARPGTSPKVCPSCNGSGVISRNQGAFGFSEPCTECRGSGSIIEHPCQECRGTGVTTRTRTINVRIPPGVEDGQRIRLAGQGEAGLRGAPSGDLYVTVHVRPDKVFGRDGDDLTVTVPVSFHELALGTTLSVPTLDGKVGVRVPKGTSDGRILRVRGRGVPKRSGGHGDLLVTVKVAVPPNLEGEAAEALEAYAKAERASGFDPRAGWAGNV
B3: GntR (recombinant) (natural protein)
chain: MSPTPDPQSAVPAREIAYRIVYDAIASGRYLPGQWIREDEVTAEAGVSRTPLREALQRLQSEGLVQLVRHRGALVVGWTSADLDDLFDIRVALETYGARRAAQRRGGAQLESLQKLCASMDEILPAAQEPELQQLGHLCIDFHRGIHEAADNRKLLSVMPMVLAPPFVSEAFHHHTRLELEQAFAHHRELVEAIAIGDEDWAEGVMRAHLRHGRRSLRRMERHLPLMTSHDAEPAVTDTGQPETTSSDPVHE
B4: Magnesium chelatase (recombinant) (natural protein)
chain: MVSQPKDLPRTVGELRASGHRERGVKAEIRENLLAALAERRDVWPGILGFEDTVIPQLERALIAGHDVVLLGERGQGKTRLLRALTGLLDEWTPVIAGSELGEHPYSPITPESIRRAADSGDDLPVEWRHRSERYTEKLATPDTSVADLVGDIDPIKVAEGRSLGDPETIAYGLIPRAHRGIVAVNELPDLAERIQVAMLNVMEERDIQVRGYTLRLPLDVLVVASANPEDYTNRGRIITPLKDRFGAEIRTHYPLELEAEVGVIRQEAELAAEVPEYLLAVLARFARNLRESNSIDQRSGVSARFAIAAAETVAASARHRAAILGEDDPVARVVDLGTVIDVLRGKLEFETGEEGREQAVLEHLLRRATADTAQRLLGGIDVGPLVAAIEEGSPVTTGERVSAKDVVAALPDLPAIDAIAHRLNAVSVGQRAAAIELALEALYLAKRIDKVSGEGETVYG

The target in the test is ^H7-SUMOClpC1^FLAG (recombinant ClpC1) (M. smegmatis, UniProt A0R574 1-848). The test can be described thus: MST; 1 mM ATPγS; Kapp from Hill fit.
^H7-SUMOClpC1^FLAG (recombinant ClpC1), sequence (A0R574 whole entry): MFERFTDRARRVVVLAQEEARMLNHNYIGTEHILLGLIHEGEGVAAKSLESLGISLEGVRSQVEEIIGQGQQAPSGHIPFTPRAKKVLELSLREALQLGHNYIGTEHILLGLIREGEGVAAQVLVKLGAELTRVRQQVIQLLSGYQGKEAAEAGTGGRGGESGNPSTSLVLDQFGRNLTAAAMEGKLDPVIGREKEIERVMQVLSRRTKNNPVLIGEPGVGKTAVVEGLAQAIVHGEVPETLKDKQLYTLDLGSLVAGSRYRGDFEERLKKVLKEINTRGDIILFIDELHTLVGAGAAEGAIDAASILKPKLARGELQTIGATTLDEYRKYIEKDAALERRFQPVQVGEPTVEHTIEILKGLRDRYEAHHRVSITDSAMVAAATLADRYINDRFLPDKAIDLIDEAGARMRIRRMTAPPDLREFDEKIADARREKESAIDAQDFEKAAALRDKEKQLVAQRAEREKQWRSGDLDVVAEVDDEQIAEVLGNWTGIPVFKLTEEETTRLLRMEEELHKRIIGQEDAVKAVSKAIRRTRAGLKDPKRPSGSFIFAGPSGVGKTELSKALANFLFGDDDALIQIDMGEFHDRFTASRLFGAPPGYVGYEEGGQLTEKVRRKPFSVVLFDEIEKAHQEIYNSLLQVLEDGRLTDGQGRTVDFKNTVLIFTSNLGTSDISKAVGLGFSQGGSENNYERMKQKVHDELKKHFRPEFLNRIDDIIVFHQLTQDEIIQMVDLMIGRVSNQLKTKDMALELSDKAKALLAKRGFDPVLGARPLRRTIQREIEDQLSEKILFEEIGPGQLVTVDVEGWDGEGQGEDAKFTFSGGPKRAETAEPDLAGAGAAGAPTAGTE
What is called Kd is a measure of binding affinity in units of concentration. For B1, the dissociation constant (Kd) worked out at 4.6 µM.

Turning to B2, the dissociation constant (Kd) is 6.4 µM.

In the case of B3, the dissociation constant (Kd) was determined as 3.3 µM.

As to B4, the Kd was determined as 6.7 µM.
